According to the DeepSol protein solubility set:

Assay: soluble on expression in E. coli; label from the status in PepcDB or PDB records

| Sequence | soluble on expression in E. coli |
| --- | --- |
| MPFPFSRLFSFGVEHETGYVSRQSGRGRVYKGGGYSPFTITFQVSTHRSTMSDVTVAETPAVKTPTKAPKAPKSKTTKEPKAKVAAAHPPFINMVTAAISSLKERKGSSKIAILKYITANYKVGDQLTKINSRLRAALNKGVASKALVQSVGNGASGRFRVAEKAAATKKPVAKKPVAKKAATGEKKAKKTTVAKKTGDKVKKAKSPKKIAKPAAKKVAKSPAKKAAPKKAPAKKAAAPKA | not soluble |
| MPGKRRFRRSPVKYDFFTRLLQTGFLSTDSLLYPESQFHICTQLSSQDAYADNLEHHHHHH | not soluble |
| MPGVEPYEPLQLMGRDVYIREGCVGCHSQQVRTLQAEVQRYGPYSVAGESVFDHPFLWGSKRTGPDLARVGERYSDEWHRIHLRDPRAVVPESNMPAYPWLQHADLTGQNVAQRMQALRRLGVPYTDEAIAAAPAAIAGKTEEDALVAYLQALG | not soluble |
| MPILGHNILKIEFEKLQTLGGKIEVSLRPTIRNLRLGEMHLPSGKVKGIEVDVDYIITYSPEVARASIKVRVFYVPRNKEDIDNILDEWEDRKVLPGELVAEVVNFTTSELMPIAMYIAKEMRIPYPVPLPRAVVRGE | soluble |
| MPISETWLLPDGVADVLPEQAQVVETLRRQALDFLASRGYQLVYTPFIEYIESLSLLSESNHDLDLVTFKVIDQLSGRLLGVRADMTPQVARIDAHVRSIEGVARYCYAGTVLHTKPQNFNSSRAPLQLGAELYGHQSLEADIEMVDVMLGLIQQAHNLEGLHLDLGHVGLFRSLVKRAGLSKQVEQDLSDLYQRKALPELEEVTKTLAFGSDFYALGRYASDLNALEQHLSQDVLNDASFKTSLDDLKTTLSQIQTRWPNLRIGIDVVELRSYHYHTGLMYAVYAPNRAAPLAQGGRYDGIGEHFGRARPATGFSCDLYALCVGQFKEIETIVAPAGQDQQLLGAIAQARQNGLRVIQLLGNDDLSSVPYATHKMELAQDQWQINKI | not soluble |
| MPKEWLAEDLSEQYVADYKAFNFVDGEGVRCSLYLSGCPFHCPGCYNVAAQNFHYGQPYSQELEDQIIEDLGQDYVQGLTLLGGEPFLNTQVGIRICERIRSEFGNTKDIWSWSGYTWEELQQDSEDKLKMLSLIDILVDGRFLQDKMDLSLQFRGSSNQRIIDVPKSLTAGKVVIWDKLVKLEHHHHHH | soluble |
| MPKINTSSSGWLADISLFYEKRGTNTKLVHREQVGPLMVQRPFYPETGIAHTYLLHPPGGVVGGDQLNINIHVSPQAHSLLTTPGATKFYRSSGATSSQTQNLTVESDGFLEWLPQENIFFPDSQAQLKTQVELHKNAHFIGWEMNCFGRPVLDEIFENGFVTGRTNIKVDDQLLLSESMYIDSIDEIKHAAGMRHYPMLGNLYIYPASEALEEKLRTLIDENFHEQPELFGSSNPICGITEIDGLLVIRYLGHQTEPMMACFSTLWQHTRQHWLGKLPEVPRIWATLEHHHHHH | not soluble |
| MPKLYVIPTPIGNLKDITLRALEVLKEVNYIACEDTRRTMILLNHYGIKGKKLISYYEPKEEKQIPKILKVLEKEDVALVTDAGMPAISDPGYRLIRKCIEKGIEIEVLPGPSAVITALVGSGLPPDRFLFVGFPPKKGTKGFFEELKSCEDTTVILFENPNRLLKTLKIIHEVFGNVQACVARELTKLHEEYIRGNLEEIIQELESREKIKGEVVVLFRILEHHHHHH | soluble |
| MPKWGNINERRNQLHEVIRLSGMNLIIDDTDHPLIIKVASIQSARMQVYFIDNDDYFQNRLQTADENGVEYDDNDSRAIFYARGVLETVKKLRWCPDVIHCHGWMTALAPLYIKKAYKDEPSFRDAKVVFSVYEDDFKNTLSEDFATKLMLKGITKKDLAGLKEPVDYAALCKLAVDYSDGIIQNSAKVDESIIEYARQSGKLVLDYQDPENYANACNEFYDQVWETTTNKEEELEHHHHHH | soluble |
| MPLEASELKPTAGPLEASELKPTAGPLEASELKPTAGPLEASELKPTAGPLEASELKPTAGPLEASELKPTAGPLEASELKPTAGMEKTKKIAVMSGKGGVGKTTVAVNLAVALAAEGYQVGLLDLDLHGPNVQRMLGVSLPPSEGEKIVPAKYGDSLKVFSLAMILQEGAPVIWRGPLKHKAIEQLTRDVEWGDLDYLICDLPPGTGDEALSTFQIIKPDAVIVVSTPQKVAGDDVRRAINFVKRLSGKILGLVENMSYLVCPNCGEKIYVFGKGETEKLAEEFGIPLIARIPMDPEVVSLSDEGRPAVVYKRGTVIEEEFKKIVEKVLSLLEHHHHHH | not soluble |
| MPLFKRRDGSGPAPNATIREKYDFRDVLGTGAFSKVFLAESKSDAGQMYAVKCIDKKALKGKEESLENEIKVLRKLRHNNIVQLFDTYDEKQFVYLVMELVTGGELFDRIVAKGSYTEQDASNLIRQVLEAVGFMHDNGVVHRDLKPENLLYYNQDEDSKIMISDFGLSKTEDSGVMATACGTPGYVAPEVLQQKPYGKAVDVWSIGVIAYILLCGYPPFYDESDANLFAQIIKGEYEFDAPYWDQISDSAKDFITHLMCCDPEARFTCQDALSHPWISGNTAYTHDIHGTVAVHLKKSLAKRNWKKAYNAAAAIRQLQMLRLSSNSNRLQKQASQQQPEPPTPAFHA | soluble |
| MPMPFTRDDDYDSDPEVQAEKEMAKKDPIGFAIDSSSLTSMKKAAAAAAKDQVSTTPPNLVIGSNGGAGTIATVPRSKSQDEIVKKQKTAGQSKALKKQRSRGISGCSSRKYSGYDDEMDEDFGDDEDYDHYGGQEVFDEDEEDTFVAKK | not soluble |
| MPMTLGYWNIRGLAHSIRLLLEYTDSSYEEKKYTMGDAPDYDRSQWLNEKFKLGLDFPNLPYLIDGTHKITQSNAILRYIARKHNLCGESEKEQIREDILENQFMDSRMQLAKLCYDPDFEKLKPEYLQALPEMLKLYSQFLGKQPWFLGDKITFVDFIAYDVLERNQVFEPSCLDAFPNLKDFISRFEGLEKISAYMKSSRFLPRPVFSKMAVWGNK | soluble |
| MPNASQVYRSTRSSSPKTISFEEAIIQGLATDGGLFIPPTIPQVDQATLFNDWSKLSFQDLAFAIMRLYIAQEEIPDADLKDLIKRSYSTFRSDEVTPLVQNVTGDKENLHILELFHGPTYAFKDVALQFVGNLFEYFLQRTNANLPEGEKKQITVVGATSGDTGSAAIYGLRGKKDVSVFILYPTGRISPIQEEQMTTVPDENVQTLSVTGTFDNCQDIVKAIFGDKEFNSKHNVGAVNSINWARILAQMTYYFYSFFQATNGKDSKKVKFVVPSGNFGDILAGYFAKKMGLPIEKLAIATNENDILDRFLKSGLYERSDKVAATLSPAMDILISSNFERLLWYLAREYLANGDDLKAGEIVNNWFQELKTNGKFQVDKSIIEGASKDFTSERVSNEETSETIKKIYESSVNPKHYILDPHTAVGVCATERLIAKDNDKSIQYISLSTAHPAKFADAVNNALSGFSNYSFEKDVLPEELKKLSTLKKKLKFIERADVELVKNAIEEELAKMKL | soluble |
| MPNNETEASMRNTLFPTLKWSLLVLMTSLLTACGFHLRGDYDIPQELSRMSLTSYDQYSTFTRMVHRQLRLNKIDLQAPAEDLPNLHLLSESTGERTLSLYQNTRAAEIELTFVASYRVTVPELGSRTFTTSVTRSYLDNPLTALAKSVERDMIEDEMRKLAASQIVRQMARLKADFARKTLDDESIEGKGITDYRVDTQEVANPVSTEGSSELEHHHHHH | soluble |
| MPNTPHTMNLYIKNIAQLVTCQGSEAKHGREAMGQIHTIEGPAAVVIRDGIIAFAGRMADVAPSMTEGCRELDATGRCVLPGFVDSHTHLVFGGYREDEFQWRLAGDSYMSIMERGGGIASTMRATRSESEDELKASARRHLSNMMKMGVTTVEAKSGYGMNLETELKQLRVVRDLQDEQPLDLYSTFMGAHDTAPEYKGRPTEFIEYLCREVLPEVVRQNLAECCDIFTEKGVFDHEQTRRMLTAAKEAGLSVKMHADEIVPFGGAELAAELGCLSADHLLRISDAGIKALAESNTVATLLPCTAFSLRADYAPARKMIDAGCAVALGSDLNPGSCFSASVPLMFALATLYMGMTVEEAITALTINGAAAIGRADTIGSIEPGKKGDLVVLQYPSYKFLSYHFGMNLVEHTVKGGRVVYTNS | not soluble |
| MPNTTNKDYTKYSQRQLFSFLNSIKTKQKRALEKLKEIQAQKQRIKKALQFKALNLTENGYTIEEEREILARAKDTKNRLCFKSIEDFKKHCENL | not soluble |
